Measurements: PMC3334378

Biological target: fibronectin (UniProt P02751)
UniProt P02751, sequence (P02751 32-2477): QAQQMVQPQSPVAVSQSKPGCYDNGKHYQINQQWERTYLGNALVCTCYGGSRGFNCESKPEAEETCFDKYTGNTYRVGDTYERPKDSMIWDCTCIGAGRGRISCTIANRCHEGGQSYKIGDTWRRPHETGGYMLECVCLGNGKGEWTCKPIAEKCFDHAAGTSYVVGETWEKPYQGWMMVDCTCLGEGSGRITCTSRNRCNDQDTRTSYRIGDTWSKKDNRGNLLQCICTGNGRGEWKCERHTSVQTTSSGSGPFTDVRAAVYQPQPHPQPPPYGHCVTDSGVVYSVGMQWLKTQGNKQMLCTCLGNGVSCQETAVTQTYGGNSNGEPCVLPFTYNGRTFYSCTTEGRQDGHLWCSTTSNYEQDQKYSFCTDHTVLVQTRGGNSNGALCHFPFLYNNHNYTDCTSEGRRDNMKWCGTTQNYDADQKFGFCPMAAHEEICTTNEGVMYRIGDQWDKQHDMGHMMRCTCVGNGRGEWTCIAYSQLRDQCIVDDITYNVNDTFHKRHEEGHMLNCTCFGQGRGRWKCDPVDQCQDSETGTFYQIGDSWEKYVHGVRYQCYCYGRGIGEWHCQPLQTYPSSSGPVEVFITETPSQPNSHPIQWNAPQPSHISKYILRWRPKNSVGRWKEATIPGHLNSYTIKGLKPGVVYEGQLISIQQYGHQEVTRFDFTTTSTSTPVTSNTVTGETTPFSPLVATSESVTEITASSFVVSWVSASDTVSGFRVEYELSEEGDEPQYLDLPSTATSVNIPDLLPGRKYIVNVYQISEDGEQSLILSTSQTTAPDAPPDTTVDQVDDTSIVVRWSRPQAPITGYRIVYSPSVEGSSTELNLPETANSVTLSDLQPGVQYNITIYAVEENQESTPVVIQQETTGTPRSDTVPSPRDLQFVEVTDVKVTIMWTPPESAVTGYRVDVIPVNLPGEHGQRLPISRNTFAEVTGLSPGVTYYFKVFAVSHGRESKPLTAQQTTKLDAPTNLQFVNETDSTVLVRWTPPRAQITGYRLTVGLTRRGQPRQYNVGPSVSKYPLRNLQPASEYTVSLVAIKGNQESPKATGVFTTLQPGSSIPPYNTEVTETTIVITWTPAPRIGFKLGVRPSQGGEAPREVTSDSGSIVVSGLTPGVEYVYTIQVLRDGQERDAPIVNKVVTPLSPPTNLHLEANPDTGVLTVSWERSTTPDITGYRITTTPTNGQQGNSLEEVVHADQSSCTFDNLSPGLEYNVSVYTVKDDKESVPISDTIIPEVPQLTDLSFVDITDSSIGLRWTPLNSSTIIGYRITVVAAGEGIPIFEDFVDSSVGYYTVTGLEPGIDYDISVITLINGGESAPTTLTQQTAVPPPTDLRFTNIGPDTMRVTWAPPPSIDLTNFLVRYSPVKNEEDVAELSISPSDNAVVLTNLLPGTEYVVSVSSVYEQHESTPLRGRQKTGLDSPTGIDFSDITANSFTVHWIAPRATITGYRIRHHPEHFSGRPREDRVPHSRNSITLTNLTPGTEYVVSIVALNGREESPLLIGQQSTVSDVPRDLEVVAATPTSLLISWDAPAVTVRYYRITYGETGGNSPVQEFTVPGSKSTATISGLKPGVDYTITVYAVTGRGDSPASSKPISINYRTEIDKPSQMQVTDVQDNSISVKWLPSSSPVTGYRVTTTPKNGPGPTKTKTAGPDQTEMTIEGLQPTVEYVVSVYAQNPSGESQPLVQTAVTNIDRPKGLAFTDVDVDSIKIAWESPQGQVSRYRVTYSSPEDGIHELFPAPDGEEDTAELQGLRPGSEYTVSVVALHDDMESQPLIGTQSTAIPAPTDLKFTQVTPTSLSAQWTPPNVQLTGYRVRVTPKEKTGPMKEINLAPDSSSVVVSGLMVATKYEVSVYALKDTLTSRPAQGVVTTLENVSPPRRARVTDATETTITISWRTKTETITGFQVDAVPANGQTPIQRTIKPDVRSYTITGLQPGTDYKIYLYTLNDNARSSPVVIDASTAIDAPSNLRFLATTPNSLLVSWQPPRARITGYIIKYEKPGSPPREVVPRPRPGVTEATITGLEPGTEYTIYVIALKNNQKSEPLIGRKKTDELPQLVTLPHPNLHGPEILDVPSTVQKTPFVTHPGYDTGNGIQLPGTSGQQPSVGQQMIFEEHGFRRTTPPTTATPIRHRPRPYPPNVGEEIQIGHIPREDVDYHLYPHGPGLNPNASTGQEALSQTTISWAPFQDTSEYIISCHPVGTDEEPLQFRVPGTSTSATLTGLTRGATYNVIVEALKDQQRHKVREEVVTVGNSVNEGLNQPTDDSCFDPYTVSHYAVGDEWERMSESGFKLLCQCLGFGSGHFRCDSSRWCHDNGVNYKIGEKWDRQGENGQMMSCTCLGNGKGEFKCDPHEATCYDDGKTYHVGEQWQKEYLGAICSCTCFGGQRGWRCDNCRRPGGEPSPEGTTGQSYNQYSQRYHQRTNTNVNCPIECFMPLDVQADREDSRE

β1-integrin, sequence (P49134 21-799): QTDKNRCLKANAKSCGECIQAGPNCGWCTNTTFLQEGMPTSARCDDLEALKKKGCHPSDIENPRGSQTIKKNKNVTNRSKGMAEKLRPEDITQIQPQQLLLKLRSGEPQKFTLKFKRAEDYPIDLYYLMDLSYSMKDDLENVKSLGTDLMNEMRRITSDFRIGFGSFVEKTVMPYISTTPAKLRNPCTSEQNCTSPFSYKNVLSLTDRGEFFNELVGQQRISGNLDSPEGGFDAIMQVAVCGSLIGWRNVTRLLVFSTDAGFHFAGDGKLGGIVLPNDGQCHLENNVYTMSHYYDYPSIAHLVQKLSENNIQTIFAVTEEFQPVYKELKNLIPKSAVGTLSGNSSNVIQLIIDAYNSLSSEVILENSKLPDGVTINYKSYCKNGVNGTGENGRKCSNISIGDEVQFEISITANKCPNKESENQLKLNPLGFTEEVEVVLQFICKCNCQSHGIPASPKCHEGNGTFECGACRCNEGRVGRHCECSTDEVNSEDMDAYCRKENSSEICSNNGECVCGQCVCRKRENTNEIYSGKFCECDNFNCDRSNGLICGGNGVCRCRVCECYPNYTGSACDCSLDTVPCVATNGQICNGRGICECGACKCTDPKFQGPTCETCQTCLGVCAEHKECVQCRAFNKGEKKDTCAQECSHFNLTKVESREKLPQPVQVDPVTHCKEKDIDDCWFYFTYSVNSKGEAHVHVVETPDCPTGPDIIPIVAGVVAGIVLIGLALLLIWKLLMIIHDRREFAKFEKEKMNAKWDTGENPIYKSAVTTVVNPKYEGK

inhibition of adhesion of 3Y1 cells to fibronectin-coated plates (60 min, 37°C) by β1-integrin blocking antibody (hamster anti-rat CD29, 50 µg/mL): 51%
inhibition of adhesion of HR-3Y1-2 cells to fibronectin-coated plates (60 min, 37°C) by β1-integrin blocking antibody (hamster anti-rat CD29, 50 µg/mL): 57%
Substance: β1-integrin (from UniProt P49134 21-799) (receptor)
